# Assay: yeast display, Sf9 membrane polyspecificity reagent, FACS + sequencing; frameworks hold sequencing errors
# Outline: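 Polyreactivity labels are assigned by the sorting gate from which each nanobody was recovered. The gates were low and high (top ~1%), set on anti-HA fluorescence for expression and streptavidin fluorescence for reagent binding. Before sorting, galactose-induced (36–48 hours) yeast display cells were stained for 1 hour at 4 °C with 10% biotinylated, detergent-solubilized Sf9 membrane reagent.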
row,Sequence,polyreactivity (PSR sort gate)
1,QVQLVESRGGSVQAGGSLRLSCAASGNIFYYAMGWYRQAPGKERELVAAISASGGSSYYADSVKGRFTISRDNAKNTVYLQMNSLKPEDTAVYYCKAVFYRGPGAQGDPRRRSDYWGQGTQVTVSS,high polyreactivity
2,QVQLVESRGVLVQAGGSVRVSCAASGSTFTFNAMGWYRQAPGKVRELVADITSGGRTNYADSVKGRFTISRDNAKNTVYLQMNSLKPEDTAVYYCAARWWAHEYPGYDSWGQGTQVTVSS,low polyreactivity
3,QVQLVESRRGLVQAGGSLRLSCAASGRISNEYAMVWSRQAPGKERELVATITFSGGDTYYADSVKGRFTISRHNAKNTVYLHKNSLKPEDSAVYYCAASKWRSYCGGWWRLQFDYWGQGTQVTVSS,low polyreactivity
4,QVQLVESSGGLVQAGGSLRLSCAASGFNFKRYAMGWSRQAPGKEREMVAAINSGGSTNYADSVKGRFTISRDNAKNTVYLQMNSLKPEDTAVYYCAASTSRYYWYALRDYWGQGTQVTVSS,high polyreactivity
5,QVQLVESSGGLVQAGGSLRLSCAASGITFYYYAMGWYRQAPGKERELVAVITGNGGRTYYADSVKGRFTISRDNAKNTVYLQMNSLKPEDTAVYYCAALYDGIYDSWGQGTQVTVSS,high polyreactivity
6,QVQLVESVAGLVQAGGSLRLSCAASGSTFTGNAMGWYRQAPRKERELVAAITKGGSRTYYADSVKGRFTISRDNAKNTVYLQMNSLKPEDTAVYYCAAIERYSYLLYPKFDYWGQGTQVTVSS,high polyreactivity
7,QVQLVESVGALVQAGGSLRLSCAASGSIFGSNAMGGYRQAPGKERELVAAITWSGTSTYYADSVKGRFTISRDNAKNTVYLQMNSLKPEDTAVYYCARGGYVRAARLVIPYYYWGQGTQVTVSS,low polyreactivity
8,QVQLVESVGCLVQARGSLRLSSAASGLIFPKYAMGWYRPAHGKERELVAAISSSGGSTYYADSVMGRFTISRVNAKNTVYLQMNSLKPEDTAVYYCAAKRFTTVTGYGYWGQGTQVTVSS,high polyreactivity
9,QVQLVESVGGIVQAGGSLRLSCAASGITLYWYAMGWYRQAPGKERELVAAISRRGGTTYYADSVKGRFTISRDNAKINVFLQMHSLNPEDTAVYYCAKAPDTQTSWSRQEGTYWGQGTQVTVSS,low polyreactivity
10,QVQLVESVGGLAQSRGSLRLSCAASGRTFFPNAMGWYRQAPGKERELVAAITNGDSTHYADSVKRRFTISRDNAKNTVYLQMNSLKPEDTADYYCAAEDHYEGYGGYYWGQVTQVTVSS,low polyreactivity
11,QVQLVESVGGLDQAGGSLRLSCAASGSTFSLYTIGWYRQAPGKERELVASISRGGGSTYYADSVKGRFTISRDNAKNTVYLQMNSLKPEDTAVYYCASGTLYFYSHNPEDDFDYWGQGTQVTVSS,high polyreactivity
12,QVQLVESVGGLDQAGGSLRLSCAASGYTFSLNAMGWYRQAPGKEREFVATIRSSGARTSYADSVKGRFTISRDNAKNTVYLQMNSLKPEDTAVYYCAARYYNSYRYAMGYWGQGTQVTVSS,high polyreactivity
13,QVQLVESVGGLDQAGGSLRLSGAASGSIFAHYAMGWYRQAPGKETELVARISWSGGSTYYADSVKGRFTISRDNAKNTVYLQMNSLKPEDTAVYYCARAGRSWDTLYKYYLEHDYWGQGTQETVSS,low polyreactivity
14,QVQLVESVGGLDQAGVSLRLSCPASVRTLSKNSMGWYRQAPGKARELVATISSVGRTNYAVSVKGRFTISRDNAKNTVYLQMKSLKREDTAVYYCDARRFRGSYYWGLGTQVTVSS,high polyreactivity
15,QVQLVESVGGLLQAGGRLRLSCAASGSTFGKYVMGWYRPAPGTERELVAAISLSGGSTYYADSVKGRFTISRDNAKNTVYLQMNCRKPEDTALNYCATVGYGYDYWGQATQVTVSS,high polyreactivity
16,QVQLVESVGGLLQAGGSLRLSCAASGRIFTGYAMGWYRQAPGKERELVAAISSRGGSTYYADSVKGRFTISRDNAKNTVYLQMNSLKPEDTAVYYCNAYQWRHRYTMYYWGQGTQVTVSS,high polyreactivity
17,QVQLVESVGGLVEAGGRLGISCDDSGIIFRVNTIGCYRQAPGKERELVARSTGAGNKYYADSVKGRFTISRDNAKTTVYLQMNSLKPKDTAVYYCAVREFDNRRVIFYYWGQGTQVTVLS,high polyreactivity
18,QVQLVESVGGLVQAGASLRLSCAASGRTFATYAKGWYRQAPGKERELVAAISRSGGSTYYADSVKGRFTISRDNAKNTVYLQMHSLKPEDTAGYYCAARYVRQYYRAEDYWGQGTQVTVSS,high polyreactivity
19,QVQLVESVGGLVQAGASLRLTCAASGSIFWYAMGWYRQAPRQERELVAGISRGGSTYYADSVKGRFTISRDNAKNTVYLQMNSLKPEDTAVYYCNTAGYYGTPSNYWGQGTQVTVSS,low polyreactivity
20,QVQLVESVGGLVQAGGILRLSCAPSGSTFDVYAMGWYRQAPAKERELVAAISWTGGSTYYADSVKGRFTISRDNAKNTVYLQMNRLKPEDTAVYYCAAYEIQTPRIAHYVGCGRDYLGQGTQVTVSS,high polyreactivity
21,QVQLVESVGGLVQAGGRLRLSCAASGITFEPYAMGWYRPAPGKEREFVADITWSGGSTYYADSVKGRFTISRDNAKNTVYLQMNSLKPEDTAVYYCAADGWTSYWSDYWGQGTQVTVSS,low polyreactivity
22,QVQLVESVGGLVQAGGSLPLSCDASGSIFFYYAMGWSRHAPGKESELVAAIDFNGGTTYYADSVKGRFTISRDTAKITVYLQMNSLTPEDTAVYYCAAEWEGTYSTVPDEFNYWGQGTQVTVSS,high polyreactivity

row,Sequence,polyreactivity (PSR sort gate)
1,QVQLVESVGGLVQAGGSLRISCAASGFIFKSYSMGWYRQAPGKERELVAAISWIGGRTYYADSVKGRFTISRDNAKYTVYLQMNSLKPEDTAVYYCAKVVKYQSGGGLEYWGQGTQVTVSS,high polyreactivity
2,QVQLVESVGGLVQAGGSLRISCAASGRIFYNYAMGRYRQAPGKERELVAAISGSGGSTYYADSVKGRFTISRDIAKNTVYLQMNSLIPEDTAVFYCSTSGPQYYSRNFDYWGQGTQVTVSS,low polyreactivity
3,QVQLVESVGGLVQAGGSLRLICAASGSIFSPYAMGWYRQAPGKERELVAAINFNGGTTYYADSVKGRFTISRDNAKNTVDLQMNSLKPEDTAVYYCAADEVPGFGYPPYPWFDYWGQGTQVTVSS,low polyreactivity
4,QVQLVESVGGLVQAGGSLRLSCAASGFIFAFYAMGWYRQAPGKESELVAAIRTGGSTNYADSVKGRFTISRDNAKNTVYLQMNSLKPEDTAVYYCAAYGRGGYWRWERDYWGLGTQVTVSS,high polyreactivity
5,QVQLVESVGGLVQAGGSLRLSCAASGFIFNPYAMGWYRQAPGKERELVAAISWRGASTYYADSVKGRFTISRDNAKNTVYLQMNSLNPEDTAVYYCAADLAYSSTASDYEYWGQGTQVTVSS,low polyreactivity
6,QVQLVESVGGLVQAGGSLRLSCAASGFIFSYYAMGGYRQAPGKERELVAAISKTGGNTYYADSVKGRFTISRDNAKNTVYLQMNSLKPEDSAVYYCNALRGDWRDMGYWGQGTQVTVSS,high polyreactivity
7,QVQLVESVGGLVQAGGSLRLSCAASGFIFYWYAMGWYRQAPGKERELVAAITRSGGRTYYADSVKGRFTISRDNAKNTVYLQMNSLKPEDTAVYYCNAGYWLSPYKFGYWGQGTQVTVSS,high polyreactivity
8,QVQLVESVGGLVQAGGSLRLSCAASGFNFRVYPMGWYRPAPRKERELVAAISVSGGSTTYADSVNGRFTISRDNAKNTVYLQMNSLKPEDTAVYYCAADYDFFSLYLYDYWGQGTQVTVSS,low polyreactivity
9,QVQLVESVGGLVQAGGSLRLSCAASGFTFASNAMGWYRQAPGKERELVAAISRSGGSTFYADSVKGRFTISRDNAKNTVYLQMNSLKPEDTAVYYCAADIWRVYSTFYYWGQGTQVTVSS,low polyreactivity
10,QVQLVESVGGLVQAGGSLRLSCAASGFTFDENAMGWYSQAPGINYSGASTYYADSVKGRFTLSRDNAKNTVYLQMNSLKQEDTAVNYCAAEVVAQLNYWGPGTQVTVSS,low polyreactivity
11,QVQLVESVGGLVQAGGSLRLSCAASGFTFFHYAMGWYRQAPGKERELVAAINTRGSRTYYADSVKGRFTISRDNAKNTVYLQMNSLKPEDTAVYYCAADSVQVYAWQYYYWGQGTQVTVSS,high polyreactivity
12,QVQLVESVGGLVQAGGSLRLSCAASGFTFKYYAMGWYRQAPGKERELVAAITGTGGSTYYADSVKGRFTISRDTAKNTVYLLMNSLKPEDTAVYYCNAGSARGYVPYDSFAYDYWGQGTQVTVSS,low polyreactivity
13,QVQLVESVGGLVQAGGSLRLSCAASGFTFRANAMGWYRQAPGKERELVAAINWSGTSTYYADSVKGRFTISRDNAKNTVYLQMNSLKPEDTAVYYCAVLFYGAKYDYWGQGTQVTVSS,low polyreactivity
14,QVQLVESVGGLVQAGGSLRLSCAASGFTFRYYAMGSYRQAPGKERELVAAISRTGRTYYADSVKGRFTISRDNAKNTVYLQMNSLKPEDTAVYYCAADPPGYVFGKRYYWGHGTQVTVSS,high polyreactivity
15,QVQLVESVGGLVQAGGSLRLSCAASGFTFSWSTKGWYRQAHAKERELVATISWSGSRTYYADSVKGRFTISRDNAKNTVYLEINSLKPEDTAVYYCNVAPHRQVFYTGQYDYWGQGTQVTVSS,high polyreactivity
16,QVQLVESVGGLVQAGGSLRLSCAASGFTFYKNAMGWYRQATGKERELVAPITKSGGRTYYADSVKGRFTISRDYAKNTVYLQMNCLKPEDNAVYYCAADISPFGRQPCVIRYSWGQGTQVTVSS,high polyreactivity
17,QVQLVESVGGLVQAGGSLRLSCAASGGIFQPNAMGWYRQAPGKERELVATISQRGGSPYYSDSVKGRFTISRDNAKNTVYLQMNSVKPEDTAVYYCAAEVYYYYDAIYIARYEYWGQGTQVTVSS,low polyreactivity
18,QVQLVESVGGLVQAGGSLRLSCAASGGTFLFYGMGWYRQAPGKERELVAVITWSGGSTYYADSVKGRFTISRDNAKNTVYLQMKSLKPEDTAVYYCNAANTGSPDYQSIGYNFNYWGQGTQVTVSS,low polyreactivity
19,QVQLVESVGGLVQAGGSLRLSCAASGIFRQNAMGWYRQAPGKERELVAGISQSGGSTYYADSVKGRFTISRDNAKNTVYLQMNSLKPEDTAVYYCAVVSIWGYDYWGQGTQVTVSS,low polyreactivity
20,QVQLVESVGGLVQAGGSLRLSCAASGITFDDYAMGWYRQAPGKERELVAVISSSGGSTYYADSVKGRFTISRDNAKNTVYLQMNSLKPEDTAVYYCAARFEVWYTRRVLLGEYDYWGQGTQVTVSS,low polyreactivity
21,QVQLVESVGGLVQAGGSLRLSCAASGLIFHRYAMGWYRQAPGKERELVAAISSSGGITYYADSVKGRFTISRDNAKNTVYLQMNSLKPVDTAVYYCPADTGKGSPFSAGLGRAGDYWGHGTQVTVSS,low polyreactivity
